This experiment addresses HPV-16Q150A peptide (Human papillomavirus type 16). As to the kind of experiment: affinity purification with mass spectrometry; biotinylated peptide (500 ug) on streptavidin magnetic sepharose beads; pre-cleared HaCaT cell extract, 2 h at 4°C; lysis buffer 50 mM HEPES pH 7.4, 150 mM NaCl, 1 mM MgCl2, 1% Triton X-100; trypsin digest and mass spectroscopy; pooled from at least two pull-downs.

B1: ZO-2 (natural protein)
chain: MPVRGDRGFPPRRELSGWLRAPGMEELIWEQYTVTLQKDSKRGFGIAVSGGRDNPHFENGETSIVISDVLPGGPADGLLQENDRVVMVNGTPMEDVLHSFAVQQLRKSGKVAAIVVKRPRKVQVAALQASPPLDQDDRAFEVMDEFDGRSFRSGYSERSRLNSHGGRSRSWEDSPERGRPHERARSRERDLSRDRSRGRSLERGLDQDHARTRDRSRGRSLERGLDHDFGPSRDRDRDRSRGRSIDQDYERAYHRAYDPDYERAYSPEYRRGARHDARSRGPRSRSREHPHSRSPSPEPRGRPGPIGVLLMKSRANEEYGLRLGSQIFVKEMTRTGLATKDGNLHEGDIILKINGTVTENMSLTDARKLIEKSRGKLQLVVLRDSQQTLINIPSLNDSDSEIEDISEIESNRSFSPEERRHQYSDYDYHSSSEKLKERPSSREDTPSRLSRMGATPTPFKSTGDIAGTVVPETNKEPRYQEDPPAPQPKAAPRTFLRPSPEDEAIYGPNTKMVRFKKGDSVGLRLAGGNDVGIFVAGIQEGTSAEQEGLQEGDQILKVNTQDFRGLVREDAVLYLLEIPKGEMVTILAQSRADVYRDILACGRGDSFFIRSHFECEKETPQSLAFTRGEVFRVVDTLYDGKLGNWLAVRIGNELEKGLIPNKSRAEQMASVQNAQRDNAGDRADFWRMRGQRSGVKKNLRKSREDLTAVVSVSTKFPAYERVLLREAGFKRPVVLFGPIADIAMEKLANELPDWFQTAKTEPKDAGSEKSTGVVRLNTVRQIIEQDKHALLDVTPKAVDLLNYTQWFPIVIFFNPDSRQGVKTMRQRLNPTSNKSSRKLFDQANKLKKTCAHLFTATINLNSANDSWFGSLKDTIQHQQGEAVWVSEGKMEGMDDDPEDRMSYLTAMGADYLSCDSRLISDFEDTDGEGGAYTDNELDEPAEEPLVSSITRSSEPVQHEESIRKPSPEPRAQMRRAASSDQLRDNSPPPAFKPEPPKAKTQNKEESYDFSKSYEYKSNPSAVAGNETPGASTKGYPPPVAAKPTFGRSILKPSTPIPPQEGEEVGESSEEQDNAPKSVLGKVKIFEKMDHKARLQRMQELQEAQNARIEIAQKHPDIYAVPIKTHKPDPGTPQHTSSRPPEPQKAPSRPYQDTRGSYGSDAEEEEYRQQLSEHSKRGYYGQSARYRDTEL
B1 yielded a reduction in binding against the HPV-16 peptide of 25%.

(Values after paper PMC4970744.)
